Tested on: MS2 coat protein
Assay: apparent KD of MS2 coat protein; designed switch direction (-1 OFF switch, 1 ON switch): -1; higher = weaker reporter binding
Method in brief: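 Each step of the titration lasted 0.8–1.5 h at the lowest concentration and 10–20 min at the highest. The protein, SNAP-549-labelled MS2 coat protein, went from 0.7 or 1.5 nM doubling to 3 µM over RNA switches transcribed on Illumina chips by stalled E. coli RNA polymerase. Normalised cluster fluorescence was curve-fitted, and the per-design median over clusters is given as apparent KD.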

[1] = Eterna round: R95, input ligand: FMN 200 uM
[2] = Eterna round: R95, input ligand: microRNA oligo, concentration not stated
[3] = Eterna round: R95, input ligand: none
[4] = input ligand: microRNA oligo, concentration not stated

Sequence | apparent KD of MS2 coat protein [1] | apparent KD of MS2 coat protein [2] | apparent KD of MS2 coat protein [3] | apparent KD of MS2 coat protein (input ligand: FMN 200 uM) | apparent KD of MS2 coat protein (input ligand: none) | apparent KD of MS2 coat protein [4]
AAUUAACAAGCAGGAUCCUACAUGAGGAUCACCCAUGUGCUCGUCUUAUAAAGUACUAUCACGAAAGUGAUAGUACA [Mat - Sensor v3 - turn-off var 1 - Eli Mod - D74] (puzzle: Sensor v3, turn-off variant 1) | 224 nM | 566 nM | 197 nM |  |  | 
UGGGUCACAGGAUAUACAUGAGGAUCACCCAUGUCGUAUUUCGUGGCGGAGAGCUCGAGUAGAAGGGUGCAUCC [Malarala] (puzzle: Exclusion 3) |  | 96.3 nM |  |  |  | 
CCAGCAAAUGUAAGGAUAUGCUGGUCCUUGGAUCAGCAGAAGGUACAUGAGGAUCACCCAUGUAGGUAAGCUGG [Eli bmx4 4.63] (Eterna round: R97, puzzle: Brourd's mod of Exclusion 4) |  |  |  | 118 nM | 23.5 nM | 
AAGGAUAGAGGAUAUAUAUAGAUACAGAUUCAUGUAGAACUACAUGAGGAUCACCCAUGUAGAAGGCUAUCCUA [Fiskers Ex 2 - 10] (puzzle: Exclusion 2) |  | 14.7 nM |  |  |  | 
GCGCCAUCGUGAGAUGGCGUAAAUACAUGAGGAUCACCCAUGUAGGAUAUCGAUUGCUUUGCAGUCGAGAAGGGCAAGGUAUUU [JL ENG3 3.90] (Eterna round: R96, puzzle: Exclusion NG 3) |  |  |  | 28.4 nM | 24.9 nM | 18.1 nM
GGGUGACAUGAGGAUCACCCAUGUCAGGAUAUGAUUCUGCUUGCGAAAGCGAGUAGAAUCAGAAGGGACAUCCC (Eterna round: R97, puzzle: Exclusion 1) |  |  |  | 293 nM | 65.2 nM | 
CACAAGCUUUUUUGAUGCAUUUUAGUUGGUUUCCUUUUUACAUGAGGAUCACCCAUGUUUAUGAAGCUCGAUCUUUU [JR_SV3TOV2_Sub079] (puzzle: Sensor v3, turn-off variant 2) | 54.3 nM | 49.2 nM | 60.1 nM |  |  | 
UGAGAGAGUAUAGGAUAUUAGAGGAGAAUGGUGAUAGAGACAUGAGGAUCACCCAUGUGAGGAGAUAAGAAGGGUAAGAACUCA [AK ExNG2-V2-4] (Eterna round: R96, puzzle: Exclusion NG 2) |  |  |  | 452 nM | 435 nM | 292 nM
GUCCGGCGUGUAGGAUAUGGUUCCGUUUCGGUUCCAGAAGGACAUGAGGAUCACCCAUGUGCCUGUCGUCGGUCGUCACCGGGC [salish99_ExNG1_r04_220] (Eterna round: R96, puzzle: Exclusion NG 1) |  |  |  | 19.5 nM | 14.8 nM | 10.3 nM
AUAUAGAUGGUCAGGAUAUGCUAGUGAUAACAGUAGCAGAAGGGACAUGAGGAUCACCCAUGUGGAUACCGCAC [Brourd's EX4 #7] (Eterna round: R97, puzzle: Brourd's mod of Exclusion 4) |  |  |  | 122 nM | 31.9 nM | 
UUAGCGCGAGGAUAUGCGGUUUGUGCUUUGGGCCCUGGCGUACAUGAGGAUCACCCAUGUAGAAGGCGUGUUGU [Apr-15 SS2-50] (puzzle: Exclusion 2) |  | 20.7 nM |  |  |  | 
GGGCGUGAAGGAUAUACAUGAGGAUCACCCAUGUGGGAGGAGAAUGGUGAGGAGGCUGGUAGAAGGUCAGGAGG [JR_Exclusion3_Sub009] (puzzle: Exclusion 3) |  | 37.5 nM |  |  |  | 
CCGUAACAUGAGGAUCACCCAUGUUAGGAUAUGUAGCGCUGGGCAUCCUCAGCUGGUUAUAGAAGGGACGAGGG [Eternabot (L2) Solution 15] (Eterna round: R97, puzzle: Exclusion 1) |  |  |  | 73.7 nM | 111 nM | 
UCUUGUUGUCCUUGAUUUUACAUGAGGAUCACCCAUGUUAUUUUGAUUAUGAUGUGUAAGUUUGUUGCUCGUUUUAU [JR_STOV1_Sub068] (Eterna round: R97, puzzle: Sensor, turn-off variant 1) |  |  |  | 49.8 nM | 54.3 nM | 
CUUUUGUGAGGAUAUCAGUAGUAGAACAAUAGUACUACUACUGAGAAGGCACAUGAGGAUCACCCAUGUACCUC [Fiskers Ex 4 Super stable 44 mod 3] (puzzle: Exclusion 4) |  | 18.8 nM |  |  |  | 
UGAAUACGUGUUAGGAUAUGGUUUGGUAUUUUAGAUUAGAAGGGACAUGAGGAUCACCCAUGUAAUUGAUAGGU [-13, -10.4 kcal, 30% A] (Eterna round: R97, puzzle: Brourd's mod of Exclusion 4) |  |  |  | 38 nM | 41.9 nM | 
AAGGGUGCUUUCGGAACGACAUGAGGAUCACCCAUGUAGACUGAGGAUAUCUACUUCUAAGGACGGGAGAAGGCAGUGUAAUGU [Ex NG3 #70] (Eterna round: R96, puzzle: Exclusion NG 3) |  |  |  | 44.5 nM | 39.8 nM | 29 nM

Sequence | apparent KD of MS2 coat protein [1] | apparent KD of MS2 coat protein [2] | apparent KD of MS2 coat protein [3] | apparent KD of MS2 coat protein (input ligand: FMN 200 uM) | apparent KD of MS2 coat protein (input ligand: none) | apparent KD of MS2 coat protein [4]
CGAUGUCUUCGGACAUCGAACAUGAGGAUCACCCAUGUAAUGAGCAGAUCCUCAUGCAAGCUUUUUGCUCGUCUUAU [Sensor v3 - turn-off variant 1 - 45] (puzzle: Sensor v3, turn-off variant 1) | 14 nM | 9.69 nM | 16.6 nM |  |  | 
AACCUGAGGCAAAGCUUUAGGUGUACAUGAGGAUCACCCAUGUAGGAUAUGGUAGGCUUUGCUUACCAGAAGGACAUUAUGAUG [Mat - Exclusion NG 3 - Mod of JL - D50] (Eterna round: R96, puzzle: Exclusion NG 3) |  |  |  | 68.6 nM | 51.7 nM | 41.9 nM
CUUGUUUAUGUAGGAUAUGCCUGGCGUGCCUUUGCAGAAGGACAUGAGGAUCACCCAUGUAACAUGAGGCUCACCCAUGUCGCG [salish99_ExNG1_r04_105] (Eterna round: R96, puzzle: Exclusion NG 1) |  |  |  | 293 nM | 327 nM | 213 nM
UGUCAGAUGGUAGGAUAUCCCUAUCGCGUGUCCCUUUCCUAACAUGAGGAUCACCCAUGUCGGUGGGAGAAGGGCCGUAUGGUG [salish99_ExNG02_R04_036] (Eterna round: R96, puzzle: Exclusion NG 2) |  |  |  | 15.7 nM | 15.4 nM | 13.6 nM
GCUAGAGCAGGAUAUCUAAAUCCUCACAUGAGGAUCACCCAUGUAGUCGAAAGACUAAGAAGAGAAGGGCUCUAGC [Omei Ex5 E19] (Eterna round: R97, puzzle: Exclusion 5) |  |  |  | 543 nM | 1290 nM | 
AGUUGGCGAGGAUAUACAUGAGGAUCACCCAUGUGAGAGAUACUAGUGAGGUCGAUUGGUAGAAGGCGCUGACA [Mat - Exclusion 3 - Mod of JL D80] (puzzle: Exclusion 3) |  | 91.5 nM |  |  |  | 
CCAGUGUAAGGAUAUGUAUACGUCUCUCUGGUAUGAGGGCGGCAGAAGGUACAUGAGGAUCACCCAUGUCAUAU [Eternabot (L2) Solution 94] (Eterna round: R97, puzzle: Exclusion 4) |  |  |  | 37.3 nM | 22.5 nM | 
AAGCAUGGAGGAUAUACAUGAGGAUCACCCAUGUCCAGGUCCACGGGUAUUUUGUUGCGUAGAAGGCCAUGUAG [Eternabot (L2) Solution 21] (Eterna round: R97, puzzle: Exclusion 3) |  |  |  | 242 nM | 46.8 nM | 
AUCAGCUCGUGAGGAUAUACAUGAGGAUCACCCAUGUGGUCAAUAGCAGCUUCGGCUGCAUACAUGUAGAAGGCACGAGCUGAU [ENG2/7-A2] (Eterna round: R96, puzzle: Exclusion NG 2) |  |  |  | 36.6 nM | 30.1 nM | 58.5 nM
GAUGUGAGACAGGAUAUCCACGGGAUAGUCUGAGGAGAAGGGUCUACAUGAGGAUCACCCAUGUGCGUCCCUCA [EX6 B.8] (Eterna round: R97, puzzle: Exclusion 6) |  |  |  | 22.4 nM | 15.5 nM | 
ACAAGCUUUGUUGGGUGGUACAUGAGGAUCACCCAUGUUGCGCUCGUCUUGUGGGCCCGGGCCCGCGGCCCGGGCCC [-41.5, -69.6, A 12%] (Eterna round: R97, puzzle: Sensor, turn-off variant 1) |  |  |  | 545 nM | 663 nM | 
GAAAAGGUAGGAUAUACGAAAAGAAAGGGUAGAAGAAGAACACAUGAGGAUCACCCAUGUAGAAGGACCAAAAG [Mat - Exclusion 2 - Mod of my Tesla design - D1] (puzzle: Exclusion 2) | 73.1 nM | 18.5 nM | 16.5 nM |  |  | 
AAUUAACAUCAGGAUAUGACUAGCCUCGGCUAGUCAGAAGGGAUGACAUGAGGAUCACCCAUGUGAUCAAUUAA [E6/2-A2] (Eterna round: R97, puzzle: Exclusion 6) |  |  |  | 392 nM | 108 nM | 
CUUGAGCAGGUAGGAUAUACGAAGUGUCGGCGAGUAGAAGGACCUGCGAUCCACUUGAGGAUCACCCAAGUUCGCAGGAGAACA [Mutated MS2 EX1.1] (Eterna round: R96, puzzle: Exclusion NG 1) |  |  |  | 241 nM | 61.3 nM | 32.4 nM
AAUGCCAGAGGAUAUACAUGAGGAUCACCCAUGUUAAAUGAUCCUGUGCUAGAUGCACGUAGAAGGCUGUAAAA [EX3 A.8] (Eterna round: R97, puzzle: Exclusion 3) |  |  |  | 15.5 nM | 12.9 nM | 
UAUUAACAUGUAGGAUAUCUGCACGUUUAGUGCAGAGAAGGACAUGAGGAUCACCCAUGUAGAUCAUAAUAAUUUAAUUUAAUU [ENG1/6-D2] (Eterna round: R96, puzzle: Exclusion NG 1) |  |  |  | 541 nM | 117 nM | 141 nM
